From PMC3766450 (Nature structural & molecular biology, 2013)

Target: vertebrate calmodulin (CaM) (UniProt P0DP23)
Test: ITC

stoichiometry N | Binder
2 peptides per CaM | LFPRLKSVSERLSIAKGSRP [AQP0^CBD peptide L237A]
2 peptides per CaM | LFPRLKSVSERASILKGSRP [AQP0^CBD peptide L234A]

Second part, the binder before the results:

Binder | stoichiometry N
LFPRAKSVSERLSILKGSRP [AQP0^CBD peptide L227A] | 1 peptide per CaM
LFPRLKSASERLSILKGSRP [AQP0^CBD peptide V230A] | 1 peptide per CaM
